For assay [1], the target named is T1, human EMR2 (ADGRE2, CD312) on cells (human, UniProt Q9UHX3 24-823).
T1 sequence: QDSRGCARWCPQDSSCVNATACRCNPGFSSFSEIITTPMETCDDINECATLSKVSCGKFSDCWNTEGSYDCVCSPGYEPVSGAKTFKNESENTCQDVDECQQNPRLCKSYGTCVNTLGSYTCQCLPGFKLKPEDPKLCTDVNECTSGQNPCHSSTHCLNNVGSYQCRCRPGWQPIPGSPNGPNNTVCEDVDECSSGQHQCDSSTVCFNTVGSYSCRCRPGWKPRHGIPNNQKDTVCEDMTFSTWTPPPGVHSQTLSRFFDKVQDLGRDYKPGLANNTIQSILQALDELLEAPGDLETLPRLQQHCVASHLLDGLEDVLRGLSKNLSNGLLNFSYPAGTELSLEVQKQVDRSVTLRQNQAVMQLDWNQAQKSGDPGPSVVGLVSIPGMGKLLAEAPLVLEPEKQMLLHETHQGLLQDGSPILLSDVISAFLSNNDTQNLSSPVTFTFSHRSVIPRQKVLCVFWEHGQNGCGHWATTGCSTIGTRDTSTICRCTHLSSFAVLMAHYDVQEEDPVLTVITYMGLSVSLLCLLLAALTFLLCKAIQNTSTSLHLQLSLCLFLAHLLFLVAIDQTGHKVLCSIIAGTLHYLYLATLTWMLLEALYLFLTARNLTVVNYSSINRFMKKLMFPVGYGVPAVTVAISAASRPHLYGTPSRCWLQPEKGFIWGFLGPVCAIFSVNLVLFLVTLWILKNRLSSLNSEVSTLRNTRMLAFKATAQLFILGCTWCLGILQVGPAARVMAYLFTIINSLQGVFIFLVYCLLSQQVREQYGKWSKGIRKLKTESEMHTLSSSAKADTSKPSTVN
As to the kind of experiment: cell-based or functional assay.

Assay [2] has as its target T2, T-cell receptor with TRBV19 (Vβ17) beta chain on human T cells (human). The assay can be described thus: cell-based or functional assay.
Assay [3] deals with T3, EMR2W4, huEMR2 GAIN domain + GPS, D261-T540, with C-terminal Avi/6x His tag (human).
T3 construct: also called Human EMR2 GAIN domain protein
T3 chain: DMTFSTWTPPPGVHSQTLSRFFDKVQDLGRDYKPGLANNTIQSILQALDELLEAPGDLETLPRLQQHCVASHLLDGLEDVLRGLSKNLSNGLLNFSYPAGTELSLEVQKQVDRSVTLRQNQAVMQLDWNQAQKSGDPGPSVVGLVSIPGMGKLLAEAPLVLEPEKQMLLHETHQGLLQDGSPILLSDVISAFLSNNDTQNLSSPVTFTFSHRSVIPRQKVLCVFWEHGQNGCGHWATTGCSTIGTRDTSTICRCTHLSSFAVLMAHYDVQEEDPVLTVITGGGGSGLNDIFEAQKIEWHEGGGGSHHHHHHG
As to the kind of experiment: SPR, EMR2 arm, forced degradation study: pH 8.5. (Surface plasmon resonance follows binding to a sensor surface in real time, without labels.)

The target in assay [4] is T3, EMR2W4, huEMR2 GAIN domain + GPS, …. The assay can be described thus: SPR, EMR2 arm, forced degradation study: Thermal.
For assay [5] the target is unchanged. The assay can be described thus: SPR, EMR2 arm, forced degradation study: Physiological.
Assay [6] has as its target T1, human EMR2 (ADGRE2, CD312) on cells. The assay can be described thus: flow cytometry, OCI-AML3 cells, 1 hour at 37 °C; mean ± SEM. In general terms: A flow cytometer gives signals particle by particle.
Description: (§1) After secondary detection with AF647-labeled material, the MFI signal was analyzed to generate an EC50 value. Curves are representative of 3 independent experiments.
For assay [7] the target is unchanged. The assay can be described thus: flow cytometry, OCI-AML5 cells, 1 hour at 37 °C; mean ± SEM.
Description: as §1
Assay [8] has as its target T2, T-cell receptor with TRBV19 (Vβ17) beta …. The assay can be described thus: flow cytometry, percent TRBV19+ of live pan-T cells, Donor 1, 1 hour, 37 °C.
Assay [9] has the same target. As to the kind of experiment: flow cytometry, percent TRBV19+ of live pan-T cells, Donor 4, 1 hour, 37 °C.
For assay [10] the target is unchanged. As to the kind of experiment: flow cytometry, percent TRBV19+ of live pan-T cells, Donor 5, 1 hour, 37 °C.

By Kd is commonly meant the constant that tells how readily two partners part at equilibrium. In general, EC50 refers to the concentration at which the effect is half-maximal. High values mean a need for much substance, low ones an effect from little substance.

T2 sequence (A0A075B6N1 22-114): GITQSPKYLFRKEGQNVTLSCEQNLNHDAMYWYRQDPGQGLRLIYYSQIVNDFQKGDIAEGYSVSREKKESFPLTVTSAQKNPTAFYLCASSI

B1: EMVBB8 (EMR2 x TRBV19 bispecific antibody) (bispecific antibody, human IgG1, kappa, L234A L235A)
heavy 1: DIQMTQSPSSLSASVGDRVTITCRSSQSLVHSNRNTYLHWYQQKPGCAPKLLIYKVSNRFSGVPSRFSGSGSGTDFTLTISSLQPEDFATYYCSQSTHVPFTFGQGTKLEIKGGGSGGSGGCPPCGGSGGQVQLQESGPGLVKPSETLSLTCTVSGYSITSGYFWNWIRQFPGKGLEWMGYISYDGSNNYNPSLKSRITISRDTSKNQFSLKLSSVTAADTAVYYCASPSPGTGYAVDYWGCGTTVTVSSEPKSSDKTHTCPPCPAPEAAGGPSVFLFPPKPKDTLMISRTPEVTCVVVSVSHEDPEVKFNWYVDGVEVHNAKTKPREEQYNSTYRVVSVLTVLHQDWLNGKEYKCKVSNKALPAPIEKTISKAKGQPREPQVYTLPPSREEMTKNQVSLWCLVKGFYPSDIAVEWESNGQPENNYKTTPPVLDSDGSFFLYSKLTVDKSRWQQGNVFSCSVMHEALHNHYTQKSLSLSPGK
heavy 2: EVQLVESGGGLVQPGGSLRLSCTASGFTFSRYSMNWVRQAPGEGLEWVSYISSSSNTIYYADSVKGRFTISRDNAKNSLYLQMNSLRDEDTAVYYCARDQGTPFDYWGQGTLVTVSSASTKGPSVFPLAPSSKSTSGGTAALGCLVKDYFPEPVTVSWNSGALTSGVHTFPAVLQSSGLYSLSSVVTVPSSSLGTQTYICNVNHKPSNTKVDKKVEPKSCDKTHTCPPCPAPEAAGGPSVFLFPPKPKDTLMISRTPEVTCVVVSVSHEDPEVKFNWYVDGVEVHNAKTKPREEQYNSTYRVVSVLTVLHQDWLNGKEYKCKVSNKALPAPIEKTISKAKGQPREPQVYTLPPSREEMTKNQVSLSCAVKGFYPSDIAVEWESNGQPENNYKTTPPVLDSDGSFFLVSKLTVDKSRWQQGNVFSCSVMHEALHNRFTQKSLSLSPGK
light: EIVLTQSPSSVSASIGDRVTITCRASQDISSWLGWYQQKPGKAPKLLIYAAISLQSGVPSRFSGSESGTDFTLTISSLQPEDFATYYCHQANSFPLTFGGGTKVEIKRTVAAPSVFIFPPSDEQLKSGTASVVCLLNNFYPREAKVQWKVDNALQSGNSQESVTEQDSKDSTYSLSSTLTLSKADYEKHKVYACEVTHQGLSSPVTKSFNRGEC
notes: also called the bispecific antibody
In the case of B1, in assay [1], the “Cytotoxicity, EC50 (nM), 24 hours, PBMC + OCI-AML3 (Table 10)” value was 0.02 nM; the “Cytotoxicity, EC50 (nM), 48 hours, PBMC + OCI-AML3 (Table 10)” value was 0.01 nM; the “Cytotoxicity, EC50 (nM), 72 hours, PBMC + OCI-AML3 (Table 10)” value amounted to 0.004 nM; the “Cytotoxicity, EC50 (nM), 96 hours, PBMC + OCI-AML3 (Table 10)” value was 0.003 nM. Further, the “Cytotoxicity, EC50 (nM), 120 hours, PBMC + OCI-AML3 (Table 10)” value in assay [1] stood at 0.004 nM. In assay [2], the “Pan-T-cell activation (CD25), EC50 (nM), 24 hours, PBMC + OCI-AML3 (Table 10)” value came to 0.02 nM; the “Pan-T-cell activation (CD25), EC50 (nM), 48 hours, PBMC + OCI-AML3 (Table 10)” value is 0.01 nM; the “Pan-T-cell activation (CD25), EC50 (nM), 72 hours, PBMC + OCI-AML3 (Table 10)” value stood at 0.01 nM; the “Pan-T-cell activation (CD25), EC50 (nM), 96 hours, PBMC + OCI-AML3 (Table 10)” value turned out to be 0.01 nM. For the same molecule, the “Pan-T-cell activation (CD25), EC50 (nM), 120 hours, PBMC + OCI-AML3 (Table 10)” value in [2] turned out to be 0.01 nM. For the same molecule, in [3], the Kd is 0.25 nM. The Kd in [4] was 0.22 nM. The dissociation constant (Kd) in assay [5] came out at 0.21 nM. The molecule further came in with an EC50 in assay [6] of 48 nM. The molecule further came in with an EC50 in assay [7] of 27 nM. In [8], this molecule had an EC50 of 7.8 nM. The same molecule had an EC50 in [9] of 10.6 nM. The molecule also displayed an EC50 in [10] of 9.5 nM.

These data come from patent publication US20250361317A1 (Janssen / Centocor, published 2025).
